# Experimental data taken from the DeepSol protein solubility set.
# Test: soluble on expression in E. coli; label from the status in PepcDB or PDB records
row,Sequence,soluble on expression in E. coli
1,MMTMMATFLDVIDQKARSHYDEGKGLALRSLDPEADAAQLQQWFSMDYARFWSMQDSSVHQVRDFYTALCSSGHAGAWLGLHHGRAAFLVECYDPARDQVGEHYCVRPGDLGMHLLIAPPTEHIPGFSRAVFALVMRFMFDRLHAARVVVEPDVNNTKIHALNLSMGFVYAGLARFREKTASLAFCTRAQFEQAQRQELTQ,not soluble
2,MAHHHHHHMYSFSPVTPGKTAASPANDLVSSSSNSNGELVDDIKESLDRIEKLLNRGQQLLYGDGAADGKKAYSEGAAVTPDGEPADADTVSIPTARHVDANCGSYQLPSDTHVGLPLRGTGTSAAANASLYPQSTSQHSASHFQRNSEKLYQRLSGESNHRYPSQNGSNRSSLHARPHANRASVGSNRLPPGFKDKVLVSVRGRRIVQIQKEGGIVPNFEEGLDAHDTPQNFTIEELKARIHRELEEYRRLGPLMNRYKSFRRRQCVTVAKRAPMMKIASRTFTAATTAALGSKLVKHIPAPASASTPQGAANRFGVHAAAATTKTGPHAAPASRQAAKSTNGTPARSTLRNSHERGRVETRRADRGSHPPMMAPPGNSTYSAYYNPLQMSGGSRNASCELSLKQTAGCSDVVPQHARNVSKSKPRTTEPQDDMEEASLPDSMEDCDASQPYVAPLDLSVIKK,not soluble
3,MGSDKIHHHHHHMKTRYTYGGDEHVYVEIDDEMSLDAFFIALSLSKLVREANIPGVTEICPANASFEVRFDPDVIAPDEMMARIRELEGAAKAQEKRLDTRIIEIPVFYEDPWTHETLMRFRERHQDPSGTDLDYAARINGYDDAAAFIEAHHSQPWFVSMVGFVSGLPFLYQLVERQKQLEVPKYLRPRTDTPKLTVGYGGCFSCIYSVRGAGGYQMFGITPMPIFDPEQKISYLKDFMVFFRPGDIVKWKPIDRAEYDAITAQVEAGSYVPKIAEVAFDLDAFNKDMTGFNAKLMEALNDA,not soluble
4,MSLGGEVRGPVAVADFAKHVAQLHADGDIGFSKEYEAIQGEALNDEYPSENSQHPENKGKNRYLNVIAYDHSRVHLRQVPGQKKHLDYINANFIDGYQKPRAFIGTQGPLPGTFDCFWRMVWEQRVAVIVMITNLVERGRRKCDMYWPKDGTETYGIIQVRLVKEDVMATYTVRTLHIKHLKMKKKKQSQMEKTVYQYHYTNWPDHGTPDHPLPVINFVKKSTTANLPDGGPIVVHSSAGVGRTGTFIVLDAMLKQIEAKGSLNVFGFLRYIRAQRNYLVQTEEQYIFIHDALVEAITSGETNEGHHHHHH,soluble
5,MSDPSAKPLQEHILIILDDAGRREVLLTETFYTIGRSPRADIRIKSQFVSRIHAVLVRKSSDDVQAAYRIIDGDEDGQSSVNGLMINGKKVQEHIIQTGDEIVMGPQVSVRYEYRRRDQFGTMLEHHHHHH,soluble
6,MGSDKIHHHHHHMKKEKVEERIREILRPGWDLLTEEAMLYSATVGGKRIRPLLVLTLGEDLGVEEEKLLDVAVAVELFHTASLIHDDLPPIDNADFRRGKPSCHRTYGEDIALLAGDGLFFLAFSQISKIGNSKIFEEFSETAYKLLLGEAMDVEFERRKMEVSQEMVERMYAFKTGALFAFCFSAPFILKGKDHTKMKLLGEKFGVAFQIYDDLKDILGSFEKVGKDLGKDTEKVTLVKKVGIQKAREMADKYYEEVLKGIESEGLFRTLFLLKELKQMVEER,soluble
7,MGSDKIHHHHHHMAESETGDKAGQASVKTALRVIEIMEIYAREGRSLTLTELAKLLGAPMSSCLGLIRTLASLGYLYETGRRQGYYPTSRLLNIAQRISRNDPLLERVQPVLETLRDATGETVIFGKLQDDGRVLYLEVRESQNPVRYTATPGELRDVHINSIGRAILGAMTDAARDAALAKVSFQPRTGRTVASREALEREIAMWQQQGWYPNFGESFPDLGAIAVPVEIGGAVYGMSVAGPIHRVESSVDPIVAALLRGQDALRT,not soluble
8,MSLEGEVEKTQAKGSIILATTTSTSDSGLLDYLLPEFTKDTGIEAKVVAVGTGQALQMGKDGEADVLLVHSKAAEEEFVAAGDGLERKDVMYNDFILVGPANDPLKLKQELPNDIVGALKKISEQKFKFISRGDDSGTHKKELALWTEVGITPEGDYYVSAGRGMGDVLKMADEMQAYTIADRGTYLSMKADLGLDIIVEKDTNLFNQYGVIPVNPDKNENINAEGAKAFEEWILSEKAQSLIGEYGKEKYGAPLFTPNAAKEGHHHHHH,soluble
9,MGSDKIHHHHHHMKKKIVVLLPMKANSTRVKGKNFRDFCGKPLFRWILDSLLAVEDIDQIVINTDARDILAENGLVGTDRILIRDRKKEICGDEVSMNRVLADDVENVEADIYLMTHTTNPLLSSNTIKQAINQYNEELASASADSLFTVNKIQTRFYTAKCEPINHDPDNLIPTQDLEPWFEENSNLYLFNRESFAKTNARIGAKPSMMVSPAMECSDIDTPDDWDQAVVMTHYMLEKGFVKL,not soluble
10,MGSDKIHHHHHHMLNETKELLKDYYGIDDDTFKLSQEIMEEIKDKFEEIKEIREYNQYKVLKAMQESKLSDMHFNWTTGYGYNDIGREKIEEIYSKVFNTEDALVRPIIVNGTHALTLCIQGIVRPGDEILSVTGRPYDTLEGVIGIREEKGSLKEYGVTYDDVDFLEDGNLDLEGIKSKINDRTKLVMIQRSKGYSWRKSLSISDIKEAIEVIKSVKPEAIVMVDNCYGEFLDTKEPTDVGADVMAGSLIKNPGGGLALTGGYIAGRKDLIELISYRMTSPGIGKECGLTFGTTRNVLQGFFLAPYIVSQAVMGAIFCSRAFEKLGYDVLPKYDDLRSDIIQCIRLNNADEVISFCEGIQEAAPVDSYVKPVPWDMPGYESEVIMAAGAFIQGSSIELSADAPIRPPYNVYFQGGLTFDHSKMGTLKAIEFIKKLKK,not soluble
11,MGSDKIHHHHHHMEVEITITVRKVRIPEDVAVLEIFGQYDKRARYLKKLFNVEFAVRDSEILIKGMDEKSVDAAHRVLDEIISITRDGHLLDWTEFEYLVERVSNSESVKEVYSNNSKGLIIGKKVKPKTLGQKKYLEAVEKNDVVFVIGPAGTGKTYLAVAVALDYLKMGKVNRIILTRPAVEAGEKLGYLPGDLSEKVEPYLRPLYDAIIDITSPDKFNSYRERGIIEIVPLAYMRGRTLNNSFIILDEAQNTTYQQMKMFLTRLGFNSKAVITGDITQVDIEKEKSGLIECQKILEGISGIEFVYLNESDVVRHPLVKKIIKAYEEYERSRKS,not soluble
12,MAMSFEWPWQYRFPPFFTLQPNVDTRQKQLAAWCSLVLSFCRLHKQSSMTVMEAQESPLFNNVKLQRKLPVESIQIVLEELRKKGNLEWLDKSKSSFLIMWRRPEEWGKLIYQWVSRSGQNNSVFTLYELTNGEDTEDEEFHGLDEATLLRALQALQQEHKAEIITVSDGRGVKFF,soluble
13,MMKEASEPLASVTSINKQDSKVQDGEIRKEKIGTITPSKQHSSVHFFPKIMDSDSTTLIPLSRSFSQEMPIGFYQITSTQNSSTLSSRGQLASKSTILSCSHKDSSLGKQSTSSMVPRRQPQSSSDVDTYTFGNGEDYFLSLFGESKKLTAHTPQAENVSEHLSVILEEVGQFTSSSLGEIKIAEVNIKGLFVRLVNSSNEKEVEIGNHILQQNVNGHAVSLYQFPDNITLQANSTVTVWAAASEAKPQPPTDFVWEEQSKFRSSPDCTTILCKPNGEAIAWYTPIHWKQAWEKLETDIEFERCSVVVPSMRNHMFGWITASVSSTNEEKEEPIQKTPSQVYPVLYREKEIPPTVLPNKSPWCRNPNTSPHPYSSLIDSHDSDISESSLDTQLKPQPTKPKPDPGTKKKKAKS,soluble
14,MVKVTAACIIIGDEVLNGKVVDTNSTFFAKYCFDHGIQLKEIATIGDDETQIVDTVRRLVKNYDFIISTGGIGPTHDDITYECMAKSFNLPCELDEECKERMRHKSDPEARLDADALKAHYQMATMPKGTNVKNYYVCDDLWVPICSISHKMYILPGIPQLFARMLKAFTPTLKKIYNLDKDPREYVRYFVRTHLTESQISKELKLIQDESTKVSEAIKIGSYPHFGMGFNTVSILGEKKDDSYLKSIVNRVVNNLEGEVISSELENKFSNQES,not soluble
15,MGSDKIHHHHHHEELEYKGMNTLQISNVDDLISFYQYADDRIPLISGHRGGRGKGYPENSMETFENTLSYTPATFEIDPRLTKDSVIVLFHDDTLERTSNGTGKVSDYTWEELQNFRLKDPEGNITNYRIPTLEEAIRWARGKTILILDKKDVPMERTAQLITDMQAEPYVMITVHDGASARFFYEKNPNFMFEAFVKTKEAVQDYEDNGIPWSHIMAYVGPKITPEVREVIDMLHERGVMCMISTAPSDDKLSTPESRAEAYRMIIRQGVDIIESDRPIEVAEAISSLIPVSSSKGKFFSTL,not soluble
16,MGSDKIHHHHHHMDENEFDNQRENKAVARVIISFLKYEEYALKEIYNLRVKKWASISDRQKDMVPNYTKYLANLKAAIIENGKFFRSVAEYALQSISFEPGEIVQPNDLDMSKTCSLLTQVYREWSAEAISERNCLNSRLVPFLKTLSPPKADILIPGCGTGRLLVDLSRMGYNCEGNEFSYHMLLVSQYMLNAGLLQNQIIIYPFIHCFSHWKKIEDQLSPIKVPDIEAWSSNKGMGSMSICAGSFVDCYGRNQGTKISSHYTFSRRMQLSRAKAENSKDVVVTNFFIDTGSNILDYLDTIGHVLKPGGIWCNFGPLLYHFENDHGVETTYEVNPYSGFQDKINDYTPLMGLELSSDDIISIATNHLDFELIRRESGILCGYGRYAGPESCAMPGYMCHYWILKSNPTNES,not soluble
17,MNAAQVQALIRMGLPMAEDIDFRVERLDERHALARIPFHGKLVRPGGTLSGPTIMALADAAMYAVILGRLGAVEMAVTSNLNINFLSKPRPEDLLAEASILKLGRRQVVCEVGVFSQSNEEDLVAHVTGTYALPLLEHHHHHH,soluble
18,GMEVNRLSALTPPMGWNSWDCYGASVTEEEVLGNAEYMANHLKKYGWEYIVVDIQWYEPTANSSAYNPFAPLCMDEYGRLLPATNRFPSAKNGAGFKPLSDAIHDLGLKFGIHIMRGIPRQAVYENSPVLGSTKTAREIAHTNSICPWNTDMYGVDPTKEGAQSYYNSLFELYAQWGVDFVKVDDIAASRLYDTHLEEIKMIQRAIQACGRPMVLSLSPGPAPIKYAHHFKTNANMWRITDDFWDDWSLLYQMFERCEVWEKHIGTGHWPDCGMLPLGHIGIRSVDGPGGDRWTRFTKDEQLTMMNLWAICHSPLMFGGELRDNDEWTLSLLTNEGILSINQKSVLNRFVYREEDKVAWAANGRNGEAYVALFNLHDQQKTLQFRLDMVGIMETVQLFNVWDRSFLQSLAPSESFQIELKPHQSMMLKLSPDR,soluble
19,MGSDKIHHHHHHAWGAKDAEVGKAWKGWKKGQFQIHLIYTGVSESMFLIFPDGTTMLLDCGDHNAVGRGKLAVPVLPNPDRHAGEWISRYVRRVNPQKDYVDYMMLTHYHSDHGGNNKFYARKETRDGKDYYLSGFSQAAEYLTFGKAFDRCWPDYNDPLPLTQEAADAFEHMKDFYDYMLAHKKMEIEKFCLGETNQIAMKKDATAYPGFSVRNICANGRIADKEGNIRDLYAERKKSNPVKFSENGMSLGMIFTYGDFKFYTAGDFSDGWELPNGKRFEIEDAIADVVEPVSVAKINHHGHKSMTDKLVAALRPRVVVNNVWDQLHTLPSVMERFYNRNLYPGERIVCPTVFPAERRAEDAGQPWLDILNPSSFDAGHVIVNVEEGGKDYSVTYLTANDESMTVKSVMRFKS,not soluble
20,MSLNDQIKIRKATKEDWEKIYQLYNSLSDEDLYLRFFHLYRITEEDAKKIASNEDHVTFLAEVDGKVVGEASLHKDGEFSLVVHRNYRTLGIGTLLVKTLIEEAKKSGLSTVKFYTLPENTPMIKIGRKLGFKMRFYEDEVYGEMRLTERELNVNLATFSAPEGHHHHHH,soluble
